The values that follow come from PMC4337669.

In this data set the test system is H-NS (Escherichia coli). As to the kind of experiment: EMSA. The following applies: 40 mM HEPES-KOH pH 8.0, 100 mM K-glutamate, 0.022% NP-40, 100 µg/ml BSA, 10% glycerol, 2 or 8 mM Mg aspartate, 20 °C 20 min; 3% native PAGE in 0.5x TBE + 2.5% …. On the technique in general: A gel shift assay detects complexes by their altered migration in electrophoresis.

For the substance “λPR-bgl template (linear pMK110 PCR fragment)”, the K half stood at 2 nM.
